We go through six molecules from patent publication US20230235027A1 (US Dept. of Health and Human Services, published 2023).

The target of experiment [1] is T1, Biotinylated SARS-CoV-2 S protein RBD with a C-terminal AviTag (SARS-CoV-2, UniProt P0DTC2 319-541).
In experiment [2] the target is T2, SARS-CoV-2 spike protein receptor binding domain (RBD), recombinant (SARS-CoV-2, UniProt P0DTC2 319-541). The experiment can be described thus: competition ELISA, RBD coated, competitor biotinylated ACE2.
Experiment [3] deals with T2, SARS-CoV-2 spike protein receptor ….
Experiment [4] has the same target. In words: direct binding to RBD wild type (FIG. 7B); format not described further.
For experiment [5] the target is unchanged. The experiment can be described thus: kinetic measurement, method not stated; table row prototype RBD.
The target is the same in experiment [6]. The experiment can be described thus: ELISA: coated SARS-CoV-2 RBD, NIH-CoVnb-112 titrated, absorbance 450 nm.
Experiment [7] deals with T3, SARS-CoV-1 spike protein RBD (SARS-CoV-1, UniProt P59594 306-527).
T3 construct: domain: RBD
In words: ELISA: coated SARS-CoV-1 RBD, NIH-CoVnb-112 titrated, absorbance 450 nm.

Experiment [8] has as its target T1, Biotinylated SARS-CoV-2 S protein RBD …. This is another data set of the same source.
Experiment [9] has as its target T2, SARS-CoV-2 spike protein receptor …. This is another data set of the same source.
The target of experiment [10] is T1, Biotinylated SARS-CoV-2 S protein RBD …. In words: biolayer interferometry (FIG. 7C).

“And” between values parts separate entries of the source, which are not always exact repeats. Identical values can stand only once. Like-named read-outs stand apart in the source and are kept apart here.

B1: NIH-CoVnb-108 (VHH, not shown: large carriers)
VHH: DVQLQESGGGLVQPGGSLRLSCAASGFTLDYYAIGWFRQAPGKEREGVSCISNSGGSTYYADSVKGRFTTSRDNAKNTVYLQMNSLKPEDTAVYYCAAVPSTYYSGSYYYTCHPGGMDYWGKGTQVTVSS
In experiment [1], B1 came in with a Kd of 26.6 nM, a koff of 0.00109 s⁻¹ and an on-rate constant (kon) of 40900 M⁻¹ s⁻¹.

B2: NIH-CoVnb-112 (VHH)
VHH: DVQLQESGGGLVQPGGSLRLSCAASGLTLDYYAIGWFRQAPGKEREGVSCISSSDGSTYYADSVKGRFTTSRDNAKNTVYLQMNSLKPEDTAVYYCAAVPSTYYSGTYYYTCHPGGMDYWGKGTQVTVSS
For the molecule B2, the half-maximal effective concentration (EC50) is 0.02 µg/mL and 1.11 nM in experiment [2]; roughly 0.01 µg/mL in experiment [4]. Further, the dissociation rate constant (koff) was 0.000295 s⁻¹ in [3], 0.000236 s⁻¹ in experiment [5] and 0.000654 s⁻¹ in experiment [8]. The association rate constant (kon) was 141000 M⁻¹ s⁻¹ in experiment [3], 223000 M⁻¹ s⁻¹ in experiment [5] and 130000 M⁻¹ s⁻¹ in experiment [8]. Besides, in [6], the concentration for a half-maximal effect (EC50 (read off the curve)) was roughly 0.01 µg/mL. Also, the binding result in [7] is given as “no binding (tested: about 5 µg/mL)”. Besides, the Kd in [8] was found to be 4.9 nM; in experiment [9], 2.1 nM.

B3: NIH-CoVnb-109 (VHH, not shown: large carriers)
VHH: DVQLQESGGGLVQSGGSLRLSCAASGFTLDYYAIGWFRQAPGKEREGVSCITNSDGSTYYADSVKGRFTTSRDNAKNTVYLQMNSLKPEDTAVYYCASFPSTYYSGSYYYTCHPGGMDYWGKGTQVTVSS
In experiment [1], B3 returned a dissociation constant Kd of 58.5 nM, a koff of 0.00188 s⁻¹ and a kon of 32100 M⁻¹ s⁻¹.

B4: NIH-CoVnb-113 (VHH)
VHH: DVQLQESGGGLVQPGGSLRLSCAASGLTLDYYAIGWFRQAPGKEREGVSCISSSDGSTYYADSVKGRFTTSRDNAKNTVYLQMNSLKPEDTAVYYCAAVPSTYYSGTYYYTCHPGGMDYWGKGTLVTVSS
With B4, in experiment [1], the dissociation constant Kd stood at 8.19 nM, the koff amounted to 0.000804 s⁻¹ and the kon turned out to be 98200 M⁻¹ s⁻¹.

B5: VHH72 (VHH)
VHH: QVQLQESGGGLVQAGGSLRLSCAASGRTFSEYAMGWFRQAPGKEREFVATISWSGGSTYYTDSVKGRFTISRDNAKNTVYLQMNSLKPDDTAVYYCAAAGLGTVVSEWDYDYDYWGQGTQVTVSS
For the molecule B5, the binding result in [10] is listed as “binds”.

B6: NIH-CoVnb-103 (VHH, not shown: large carriers)
VHH: DVQLQESGGGLVQPGGSLRLSCAASGLTLDYYTIGWFRQAPGKEREGVSCISSSDDSTYYADSVKGRFTISRDNAKNTVYLQMNSLKPEDTAVYYCATAPGTYYKGSYYPMCHYYGMDYWGKGTQVTVSS
In experiment [1], B6 registered a Kd of 9.43 nM, a dissociation rate constant (koff) of 0.00286 s⁻¹ and a kon of 303000 M⁻¹ s⁻¹.
